Reference: patent US20210122788A1 (SANFORD BURNHAM PREBYS MEDICAL DISCOVERY INSTITUTE, published 2021)

Molecular target: T1, human HVEM Fc (human, UniProt Q92956 39-202)
T1 construct: also called wild-type HVEM-Fc; not shown: human IgG1 Fc
T1 sequence: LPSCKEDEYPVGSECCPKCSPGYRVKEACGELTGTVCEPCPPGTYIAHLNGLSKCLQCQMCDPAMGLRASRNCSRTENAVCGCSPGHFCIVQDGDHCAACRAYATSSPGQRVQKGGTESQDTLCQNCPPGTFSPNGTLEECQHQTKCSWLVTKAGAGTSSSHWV
Assay: flow cytometry on EL4 cells expressing human CD160

B1: human CD160 on cells (receptor)
chain: GCINITSSASQEGTRLNLICTVWHKKEEAEGFVVFLCKDRSGDCSPETSLKQLRLKRDPGIDGVGEISSQLMFTISQVTPLHSGTYQCCARSQKSGIRLQGHFFSILFTETGNYTVTGLKQRQHLEFSHNEGTLS
notes: whole, on cells; Transduced into EL4 or 293T cells; endogenous on NK92 and blood NK cells in the functional rows
- binding result: binds
